Data as given in IntAct's records for PubMed 22228096.

Target: dnm1l_human DNM1L (UniProt O00429)
Sequence (O00429 whole entry): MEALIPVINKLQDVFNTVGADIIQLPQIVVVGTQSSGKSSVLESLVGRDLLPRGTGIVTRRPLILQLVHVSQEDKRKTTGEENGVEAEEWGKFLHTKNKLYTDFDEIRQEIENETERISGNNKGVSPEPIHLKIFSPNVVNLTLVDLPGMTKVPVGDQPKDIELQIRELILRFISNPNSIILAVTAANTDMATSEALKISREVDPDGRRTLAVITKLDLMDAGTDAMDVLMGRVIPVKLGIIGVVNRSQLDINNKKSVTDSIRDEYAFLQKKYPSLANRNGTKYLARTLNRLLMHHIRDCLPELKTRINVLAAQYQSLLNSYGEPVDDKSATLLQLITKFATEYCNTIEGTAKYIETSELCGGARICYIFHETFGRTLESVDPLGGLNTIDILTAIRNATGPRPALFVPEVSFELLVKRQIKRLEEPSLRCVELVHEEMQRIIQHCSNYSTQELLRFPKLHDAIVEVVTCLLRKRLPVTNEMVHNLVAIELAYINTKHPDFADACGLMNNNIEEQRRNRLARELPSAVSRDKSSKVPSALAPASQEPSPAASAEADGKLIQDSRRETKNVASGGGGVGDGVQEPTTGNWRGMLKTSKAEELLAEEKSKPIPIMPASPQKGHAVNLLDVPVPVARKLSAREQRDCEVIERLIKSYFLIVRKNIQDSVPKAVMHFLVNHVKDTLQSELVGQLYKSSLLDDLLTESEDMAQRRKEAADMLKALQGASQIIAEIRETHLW

effect of a mutation on the interaction	Substance
decreasing interaction	Leucine-rich repeat serine/threonine-protein kinase 2 (Homo sapiens), Q5S007 D1994A
increasing interaction	Leucine-rich repeat serine/threonine-protein kinase 2 (Homo sapiens), Q5S007 G2019S
decreasing interaction	Leucine-rich repeat serine/threonine-protein kinase 2 (Homo sapiens), Q5S007 K1347A
increasing interaction	Leucine-rich repeat serine/threonine-protein kinase 2 (Homo sapiens), Q5S007 R1441C
